The values that follow come from patent US20210395310A1, “Cyclic Peptide” (The University of Tokyo, priority 2018, published 2021).

Positions of bridges follow the written chain, without caps; N, C: chain ends. Non-standard residues stand in square brackets, D forms with d. Primed or numbered codes have the meaning given here. No end group written: not given here. PEG5′ = not defined here; PEG11″ = PEG11 linker; βAla = NCCC(=O)O Where only a bound is given, the exact number is not on record here.

The target in assay [1] is T1, HGF (Homo sapiens, UniProt P14210).
T1 construct: the full-length human HGF cDNA was cloned into pEHX1.1 plasmid; made in house; host or cells: Chinese hamster ovary (CHO) cells
Put plainly: Binding of cyclic peptides to immobilized HGF by SPR (Biacore T200). The settings on record: immobilized biotinylated HGF, single cycle kinetics; for kon: read-out: Ka (association rate); for koff: read-out: Kd (dissociation rate). As for the experimental part:
(§1) Binding of the cyclic peptides to immobilized HGF was measured using surface plasmon resonance (SPR) with Biacore T200 (product of GE Healthcare). Specifically, 2000 resonance units (RU) of biotinylated HGF was immobilized onto a CAP sensor chip by using a biotin capture kit (product of GE Healthcare).
(§2) Binding of the cyclic peptides was tested by injecting varying concentrations of the cyclic peptides into an HBS EP+buffer (10 mM HEPES (pH 7.4), 150 mM NaCl, 3 mM EDTA, and 0.05% (v/v) Surfactant P20) containing 0.1% DMSO at a flow rate of 30 μl/min. Binding of the cyclic peptides to HGF was analyzed by single cycle kinetics analysis.
(In general: In SPR one partner is held on a chip, and binding of the other changes the refractive index at the surface.)

For the next assay, the system named is PC-9 cells. Put plainly: Gefitinib resistance test. It counts as cell-based, human. More on the design: growth of lung cancer cells: dose or concentration left out as unconfirmed. As to the method:
The resistance to gefitinib, an anticancer agent, was tested by seeding human lung cancer cells, PC-9 cells, on a 24-well plate and cultured for 24 hours on a RPMI medium containing 10% fetal bovine serum. The number of living cells was counted after non-addition or addition of gefitinib ([…]), HGF (20 ng/mL), or HiP8-PEG11 (1-1000 nM) and culturing for 72 hours.

Assay [2] concerns the target T1, HGF. Put plainly: MET activation test: inhibition of HGF-induced MET activation in EHMES-1 cells. It counts as cell-based. The settings on record: at a concentration of 100 nM or more. As to the method:
EHMES-1 Cells were stimulated for 10 minutes while using a medium with 20 ng/ml ([…]) of an hHGF protein in the presence or absence of a cyclic peptide and washed with phosphate-buffered physiological saline (PBS). Then, 4% paraformaldehyde (PFA) was added in PBS and the resulting mixture was incubated for 30 minutes, followed by further washing three times with PBS. The cells were […] for 30 minutes with 5% goat serum and 0.02% Triton X-100 in PBS and then, incubated at 4° C. for 12 hours in Phospho-Met (Tyr1234/1235) XP rabbit mAb (D26, product of Cell Signaling Technology, Danvers, Commonwealth of Massachusetts), a monoclonal antibody. As the monoclonal antibody, used was that diluted at 1:1000 in a 1% goat serum PBS suspension. The cells were washed three times with PBS and incubated for 1 hour in a liquid obtained by diluting an HRP-conjugated anti-rabbit antibody and a 1% goat serum PBS suspension at 1:1000. […] By using a chemiluminescence method with ImmunoStar (registered trademark) LD reagent (product of Wako Pure Chemicals, Japan), chemiluminescence intensity was measured by ARVO MX (product of Perkin Elmer). Relative MET phosphorylation was calculated as the following: (chemiluminescence unit of sample—chemiluminescence unit of mock control)/(chemiluminescence unit of […]—chemiluminescence unit of mock control). […]
Target sequence in this assay (P14210 32-489 isoform P14210-3): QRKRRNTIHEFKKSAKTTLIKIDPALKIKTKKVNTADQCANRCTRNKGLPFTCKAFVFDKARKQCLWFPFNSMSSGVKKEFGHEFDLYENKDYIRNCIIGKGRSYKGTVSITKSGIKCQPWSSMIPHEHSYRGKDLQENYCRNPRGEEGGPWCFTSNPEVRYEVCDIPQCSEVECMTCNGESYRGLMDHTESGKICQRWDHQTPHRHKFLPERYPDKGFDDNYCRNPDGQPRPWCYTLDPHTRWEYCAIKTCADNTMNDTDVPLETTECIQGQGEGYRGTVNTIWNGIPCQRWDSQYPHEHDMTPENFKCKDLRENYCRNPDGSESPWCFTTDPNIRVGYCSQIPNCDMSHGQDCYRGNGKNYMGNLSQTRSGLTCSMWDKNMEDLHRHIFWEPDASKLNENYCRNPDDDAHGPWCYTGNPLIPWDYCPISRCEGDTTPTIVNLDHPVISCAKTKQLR
Target sequence in this assay (P14210 495-728): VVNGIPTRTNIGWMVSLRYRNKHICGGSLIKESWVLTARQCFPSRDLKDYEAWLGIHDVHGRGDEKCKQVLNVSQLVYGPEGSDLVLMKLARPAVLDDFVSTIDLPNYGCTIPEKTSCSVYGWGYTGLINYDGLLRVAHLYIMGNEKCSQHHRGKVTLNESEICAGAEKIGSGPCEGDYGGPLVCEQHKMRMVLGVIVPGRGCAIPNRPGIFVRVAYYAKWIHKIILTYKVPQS

In the next assay the target is T2, MET (Homo sapiens, UniProt P08581).
T2 construct: endogenous in cells; host or cells: EHMES-1 cells
Put plainly: MET activation assay using cells: MET activation by HGF in EHMES-1 cells. The assay is classed as cell-based. As to the method: In EHMES-1 cells, HGF activated MET at EC50=0.07 nM. The arrow in the graph indicates 0.22 nM HGF used for peptide assessment. […] The EC50 value was determined by using dose-response (variable gradient, 4 parameters) curve fitting of Prism 6.0d and plotting the logarithm of MET activation against an HGF concentration. Data thus obtained are expressed as mean±s.d. of three independent measurement results.
EHMES-1 Cells were stimulated for 10 minutes while using a medium with 20 ng/ml ([…]) of an hHGF protein in the presence or absence of a cyclic peptide and washed with phosphate-buffered physiological saline (PBS). Then, 4% paraformaldehyde (PFA) was added in PBS and the resulting mixture was incubated for 30 minutes, followed by further washing three times with PBS. […] By using a chemiluminescence method with ImmunoStar (registered trademark) LD reagent (product of Wako Pure Chemicals, Japan), chemiluminescence intensity was measured by ARVO MX (product of Perkin Elmer). Relative MET phosphorylation was calculated as the following: (chemiluminescence unit of sample—chemiluminescence unit of mock control)/(chemiluminescence unit of […]—chemiluminescence unit of mock control).

Assay [3] has as its target T3, fluorescein-HGF (human, UniProt P14210 32-728, labelled with a succinimidyl fluorescein labeling kit (sites not given)).
T3 construct: also called fluoresceinated HGF
Put plainly: competition, flow cytometry: peptide varied against the binding of 0.44 nM fluorescein-HGF to MET-Fc beads [lower panel]. As to the method: (§3) Labeling of hHGF with fluorescein was performed using a succinimidyl fluorescein labeling kit (product of Dojindo). On 200 μl (50% v/v) of protein G beads (Spherotech) in Tris-buffered physiological saline (pH 7.5) containing 0.1% BSA and […] of Tween-20, 5 μg of MET-extracellular domain-Fc fusion protein (product of R&D systems) was immobilized. […] The fluorescence intensity of the beads was detected using a flow cytometer (product of FACS Canto II, BD Biosciences).
(§4) For a competitive test of the cyclic peptide, for each of increased concentrations of the cyclic peptide, 0.44 nM fluorescein-HGF and MET-Fc immobilized beads were mixed, the resulting mixture was incubated at 25° C. for 1 hour, and fluorescence intensity of the beads was measured using a flow cytometer.
(Flow cytometry measures light scatter and fluorescence of single cells or particles in a stream.)

In assay [4] the target is human hepatocyte growth factor (HGF), recombinant full-length, active two-chain form (human, UniProt P14210 32-728). The assay is described as follows: cell-based or functional assay.
The target in assay [5] is T3, fluorescein-HGF. Put plainly: competition, flow cytometry: peptide varied against the binding of 0.44 nM fluorescein-HGF to MET-Fc beads [upper panel]. As for the experimental part:
as §3, §4

Assay [6] concerns the target T4, biotinylated full-length human HGF (human, UniProt P14210 32-728, biotinylated with a succinimidyl biotin labeling kit (sites not given)).
T4 construct: also called biotinylated HGF; biotinylated hHGF
The assay is described as follows: SPR, Biacore T200, biotinylated HGF on CAP chip, peptide injected, single cycle kinetics. As for the experimental part: as §1, §2

Assay [7] concerns the target T3, fluorescein-HGF. The assay is described as follows: competition, flow cytometry: HiP-8 varied against the binding of 0.44 nM fluorescein-HGF to MET-Fc beads. As to the method:
as §3, §4

human hepatocyte growth factor (HGF), recombinant full-length, active two-chain form, sequence (P14210 other isoform, or with tags, fused parts or gaps limits assumed): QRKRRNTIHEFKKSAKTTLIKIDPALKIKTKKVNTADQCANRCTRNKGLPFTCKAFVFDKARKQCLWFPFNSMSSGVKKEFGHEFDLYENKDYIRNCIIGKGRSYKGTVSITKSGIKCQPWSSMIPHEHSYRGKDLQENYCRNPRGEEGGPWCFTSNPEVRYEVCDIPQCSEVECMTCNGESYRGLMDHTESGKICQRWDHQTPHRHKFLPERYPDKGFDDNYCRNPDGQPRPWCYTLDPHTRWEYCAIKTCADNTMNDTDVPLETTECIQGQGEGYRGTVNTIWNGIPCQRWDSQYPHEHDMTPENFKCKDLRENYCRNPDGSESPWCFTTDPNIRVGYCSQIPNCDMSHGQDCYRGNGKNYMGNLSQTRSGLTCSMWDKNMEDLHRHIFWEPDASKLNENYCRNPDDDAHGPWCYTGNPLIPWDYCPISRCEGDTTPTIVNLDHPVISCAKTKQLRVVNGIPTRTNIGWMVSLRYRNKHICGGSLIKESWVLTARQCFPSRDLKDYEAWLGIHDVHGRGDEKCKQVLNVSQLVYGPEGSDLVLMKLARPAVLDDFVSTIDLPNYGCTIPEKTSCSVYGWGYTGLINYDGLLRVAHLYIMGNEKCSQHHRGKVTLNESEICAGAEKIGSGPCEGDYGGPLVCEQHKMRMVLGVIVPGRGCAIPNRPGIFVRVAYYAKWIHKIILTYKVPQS
T4 sequence (P14210 other isoform, or with tags, fused parts or gaps limits assumed): as above
T3 sequence (P14210 other isoform, or with tags, fused parts or gaps limits assumed): as above
T2 sequence (P08581 25-1390): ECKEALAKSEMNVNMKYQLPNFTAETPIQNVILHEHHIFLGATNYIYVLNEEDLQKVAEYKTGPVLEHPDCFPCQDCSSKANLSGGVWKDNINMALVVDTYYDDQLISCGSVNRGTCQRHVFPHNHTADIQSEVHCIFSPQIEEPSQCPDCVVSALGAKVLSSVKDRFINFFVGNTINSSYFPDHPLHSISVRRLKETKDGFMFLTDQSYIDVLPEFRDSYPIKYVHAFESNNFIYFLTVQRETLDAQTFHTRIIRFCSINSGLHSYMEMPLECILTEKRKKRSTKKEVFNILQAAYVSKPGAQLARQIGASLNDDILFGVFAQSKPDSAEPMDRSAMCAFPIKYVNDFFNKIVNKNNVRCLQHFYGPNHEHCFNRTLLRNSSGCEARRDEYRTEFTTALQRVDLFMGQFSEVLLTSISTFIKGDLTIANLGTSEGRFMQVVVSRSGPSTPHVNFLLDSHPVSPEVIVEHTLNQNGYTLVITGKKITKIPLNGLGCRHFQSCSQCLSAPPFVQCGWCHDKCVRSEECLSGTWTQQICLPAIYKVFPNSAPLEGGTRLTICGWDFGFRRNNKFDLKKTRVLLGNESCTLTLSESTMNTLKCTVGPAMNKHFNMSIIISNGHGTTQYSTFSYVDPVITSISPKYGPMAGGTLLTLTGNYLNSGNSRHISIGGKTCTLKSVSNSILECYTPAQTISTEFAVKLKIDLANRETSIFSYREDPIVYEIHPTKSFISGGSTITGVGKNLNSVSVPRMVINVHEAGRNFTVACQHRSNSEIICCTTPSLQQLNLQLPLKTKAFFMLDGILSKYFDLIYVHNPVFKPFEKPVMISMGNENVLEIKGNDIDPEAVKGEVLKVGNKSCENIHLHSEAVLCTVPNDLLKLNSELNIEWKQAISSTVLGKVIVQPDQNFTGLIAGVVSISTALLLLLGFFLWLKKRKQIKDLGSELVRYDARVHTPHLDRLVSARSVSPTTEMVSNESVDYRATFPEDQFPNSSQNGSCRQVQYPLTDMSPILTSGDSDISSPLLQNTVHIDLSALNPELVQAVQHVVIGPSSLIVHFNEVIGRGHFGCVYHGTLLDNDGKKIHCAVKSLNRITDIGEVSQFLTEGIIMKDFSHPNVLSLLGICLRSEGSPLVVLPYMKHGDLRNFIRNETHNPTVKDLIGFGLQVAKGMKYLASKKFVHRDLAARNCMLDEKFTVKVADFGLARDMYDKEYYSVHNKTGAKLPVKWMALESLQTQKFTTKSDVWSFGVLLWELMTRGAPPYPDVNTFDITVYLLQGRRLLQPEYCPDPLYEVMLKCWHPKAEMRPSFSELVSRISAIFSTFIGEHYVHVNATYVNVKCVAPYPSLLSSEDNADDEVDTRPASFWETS

For the molecule `CC[C@H](C)[C@@H]1NC(=O)[C@H](CCCNC(=N)N)NC(=O)[C@H](Cc2ccccc2)NC(=O)[C@H](CCCCN)NC(=O)[C@@H](Cc2c[nH]c3ccccc23)NC(=O)CSC[C@@H](C(=O)NCC(N)=O)NC(=O)[C@H](CCCCN)NC(=O)[C@H](Cc2ccc(O)cc2)NC(=O)[C@H](Cc2c[nH]c3ccccc23)NC(=O)[C@H](CCCCN)NC(=O)[C@H](CO)NC1=O` [HiP-12, KFRISKWYK], on HGF [1], the kon is 700000 M⁻¹ s⁻¹ and the koff turned out to be 0.0079 s⁻¹.

Take `CC[C@H](C)[C@@H]1NC(=O)[C@H](CCCCN)NC(=O)[C@H](Cc2ccccc2)NC(=O)[C@H]([C@@H](C)CC)NC(=O)[C@@H](Cc2c[nH]c3ccccc23)NC(=O)CSC[C@@H](C(=O)NCC(N)=O)NC(=O)[C@H](CCCCN)NC(=O)[C@H](Cc2ccc(O)cc2)NC(=O)[C@H](Cc2c[nH]c3ccccc23)NC(=O)[C@H](CCCCN)NC(=O)[C@H](CO)NC1=O` [HiP-13, IFKISKWYK]: on HGF [1], the kon is 1.9e+06 M⁻¹ s⁻¹ and the koff was 0.004 s⁻¹.

Regarding `COc1cc2ncnc(Nc3ccc(F)c(Cl)c3)c2cc1OCCCN1CCOCC1` [gefitinib, reference compound], in the assay with PC-9 cells, the “growth of lung cancer cells” value is “strongly inhibits growth of lung cancer cells”.

Turning to “KHKISKWKK ({CH2CO}-[dW]KHKISKWKKC; thioether N-11 (inferred)) [HiP-6, thioether cyclic peptide]”, the MET inhibitory activity result with HGF [2] was “had MET inhibitory activity”.

As for “TRKISKWYK ({CH2CO}-[dW]TRKISKWYKC; thioether N-11 (inferred)) [HiP-1, thioether cyclic peptide]”, the MET inhibitory activity entry with HGF [2] was “had MET inhibitory activity”.

For “biotinylated HGF: hHGF biotinylated using a succinimidyl biotin labeling kit”, the “MET activation activity compared with non-labeled HGF” value with MET is given as “activity equivalent to that of non-labeled HGF”.

Turning to “fluorescein HGF: hHGF labeled with fluorescein using a succinimidyl fluorescein labeling kit”, in the assay with MET, the “MET activation activity compared with non-labeled HGF” value is “activity equivalent to that of non-labeled HGF”.

With {CH2CO}-[dW]PLSKWWYSKRC[βAla][PEG11″] (thioether N-12 (inferred), also called HiP-8 modified peptide) [HiP-8-PEG11], the “IC50 (read off the curve)” value with fluorescein-HGF [3] was ~1 nM.

Take {CH2CO}-[dW]TRKISKWYKC (thioether N-11 (inferred)) [cyclic peptide HiP-1]: the “MET inhibitory activity (MET activation inhibition test, EHMES-1 cells)” value in assay [4] is ≥ 100 nM.

With {CH2CO}-[dW]NRGINKYWKC (thioether N-11 (inferred)) [cyclic peptide HiP-15], the “MET inhibitory activity (MET activation inhibition test, EHMES-1 cells)” value in assay [4] was ≥ 100 nM.

B1: HiP-8-PEG5 (peptide)
peptide: {CH2CO}-[dW]PLSKWWYSKRC[PEG5′]
modifications: thioether N-12; also: further groups not given here
notes: HiP-8 with a PEG5 tail; also called HiP-8 modified peptide
B1: in the assay with fluorescein-HGF [5], the “IC50 (read off the curve)” value was ~1 nM.

On to {CH2CO}-[dW]NKKVSKWYKRGC (thioether N-13 (inferred)) [cyclic peptide HiP-16], for which the “MET inhibitory activity (MET activation inhibition test, EHMES-1 cells)” value in [4] is ≥ 100 nM.

B2: cyclic peptide HiP-10 (peptide)
peptide: Ac-[dW]RYIKLCKISKWSRC
modifications: thioether (positions not given here); also: thioether ring-closing Cys not given here (Cys7 or Cys15)
For the molecule B2, the “MET inhibitory activity (MET activation inhibition test, EHMES-1 cells)” value in assay [4] is ≥ 100 nM.

On to {CH2CO}-[dW]QYKVSKVVYKC (thioether N-12 (inferred)) [cyclic peptide HiP-14], for which the “MET inhibitory activity (MET activation inhibition test, EHMES-1 cells)” value in [4] was ≥ 100 nM.

B3: cyclic peptide HiP-12 (peptide)
peptide: {CH2CO}-[dW]KFRISKWYKC
modifications: thioether N-11 (inferred)
notes: C-terminal tail after Cys not known (drawing)
For B3, the “MET inhibitory activity (MET activation inhibition test, EHMES-1 cells)” value in [4] is ≥ 100 nM. In addition, in [6], the affinity, expressed as Kd, was 12 nM.

B4: cyclic peptide HiP-8 (peptide)
peptide: {CH2CO}-[dW]PLSKWWYSKRC
modifications: thioether N-12 (inferred)
notes: a C-terminal tail (X')r or amide after Cys is not known
B4: in assay [4], the “MET activation inhibition concentration (IC50), EHMES-1 cells stimulated with hHGF” value is 8 nM. For the same molecule, in assay [6], the Kd (as a rule, the equilibrium constant for the complex coming apart) amounted to 0.4 nM. Further, the IC50 (usually the concentration at which inhibition is half-maximal) in the assay with fluorescein-HGF [7] was determined as 0.9 nM. In addition, the “IC50 (read off the curve)” value with fluorescein-HGF [3] was ~1 nM.

B5: cyclic peptide HiP-9 (peptide)
peptide: Ac-[dW]CKVSKWSKC
modifications: thioether (positions not given here); also: thioether to Cys2 or Cys10, not given here
On to B5, for which the “MET inhibitory activity (MET activation inhibition test, EHMES-1 cells)” value in assay [4] is ≥ 100 nM.

B6: cyclic peptide HiP-13 (peptide)
peptide: {CH2CO}-[dW]IFKISKWYKC
modifications: thioether N-11 (inferred)
notes: as for B3
With B6, the “MET inhibitory activity (MET activation inhibition test, EHMES-1 cells)” value in assay [4] is ≥ 100 nM. Also, in assay [6], the equilibrium dissociation constant (Kd) amounted to 2.1 nM.

{CH2CO}-[dW]KHKISKWKKC (thioether N-11 (inferred)) [cyclic peptide HiP-6]: the “MET inhibitory activity (MET activation inhibition test, EHMES-1 cells)” value in assay [4] is ≥ 100 nM.
